From patent US20210246166A1 (Bayer, published 2021)
Blank lines part the entries; values can stand above or below the binder they belong to. Numbered stars: 1 amine (or outer) side, 2 acyl side, 3 side chain; on linkers, the order of the positions; unused ones are H or OH. Bridge positions count the residues as written; N and C are the ends. Square brackets hold non-standard residues; d marks the D form. Ends that are not written are not given here. * marks the point of attachment. X7 = 4‑(3,5-Dimethyl-1,2-oxazol-4-yl)‑L‑phenylalanine, Cc1noc(C)c1-c1ccc(C[C@H](N[*:1])C(=O)[*:2])cc1; Pro(trans-4-F) = O=C(O)[C@@H]1C[C@@H](F)CN1; Oic = O=C(O)[C@@H]1C[C@@H]2CCCC[C@@H]2N1; Morpholine(3S-CO) = O=C(O)[C@@H]1COCCN1; Butanoyl(3,3-Me2) = CC(C)(C)CC(=O)*; tBuAla = CC(C)(C)C[C@H](N)C(=O)O; Pen = CC(C)(S)[C@H](N)C(=O)O; 4Amb = NCc1ccc(C(=O)O)cc1; Isovaleryl = CC(C)CC(=O)*; NMeC = CN[C@@H](CS)C(=O)O; Aib = CC(C)(N)C(=O)O; Sar = CNCC(=O)O

How the values were obtained:
[1] = biological target: T1, recombinant human MASP1 active protease (amino acids 297-699, C-terminal His Tag) (human, UniProt P48740 297-699); assay: cell-based or functional assay
T1 sequence: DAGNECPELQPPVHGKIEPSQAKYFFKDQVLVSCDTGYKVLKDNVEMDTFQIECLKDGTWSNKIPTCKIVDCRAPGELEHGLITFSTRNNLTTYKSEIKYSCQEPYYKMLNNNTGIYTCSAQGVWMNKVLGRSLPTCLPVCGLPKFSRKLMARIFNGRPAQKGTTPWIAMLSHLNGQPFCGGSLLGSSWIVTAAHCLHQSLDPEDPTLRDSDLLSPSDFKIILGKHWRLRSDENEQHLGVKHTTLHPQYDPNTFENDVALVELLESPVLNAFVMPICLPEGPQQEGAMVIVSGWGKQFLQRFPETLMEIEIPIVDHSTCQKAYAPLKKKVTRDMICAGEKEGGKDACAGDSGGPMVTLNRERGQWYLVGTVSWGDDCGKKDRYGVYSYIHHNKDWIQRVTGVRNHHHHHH

[2] = biological target: recombinant human MASP2 active protease (amino acids 297-686, C-terminal His Tag) (human, UniProt O00187 297-686); assay: cell-based or functional assay
Sequence of recombinant human MASP2 active protease (amino acids 297-686, C-terminal His Tag) (O00187 other isoform, or with tags, fused parts or gaps limits assumed): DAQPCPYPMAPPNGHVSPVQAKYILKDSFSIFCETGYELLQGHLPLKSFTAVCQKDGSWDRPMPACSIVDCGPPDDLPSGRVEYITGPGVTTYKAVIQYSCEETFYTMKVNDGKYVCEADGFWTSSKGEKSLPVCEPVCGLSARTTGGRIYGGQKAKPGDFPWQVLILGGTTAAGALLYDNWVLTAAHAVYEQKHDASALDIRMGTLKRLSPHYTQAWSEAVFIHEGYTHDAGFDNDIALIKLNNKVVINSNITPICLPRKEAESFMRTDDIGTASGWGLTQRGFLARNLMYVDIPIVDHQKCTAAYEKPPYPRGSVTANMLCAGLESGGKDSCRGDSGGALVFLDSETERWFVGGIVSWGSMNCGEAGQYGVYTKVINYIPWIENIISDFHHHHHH

Binder: GICSRSL[Morpholine(3S-CO)]PICIPD-OH (disulfide 3-11) [Example 357: GIC+SRSL-(Morpholine-3-carboxylic)-PIC+IPD-OH]
human MASP1 IC50 [1]: 31 nM | human MASP2 IC50 [2]: 1300 nM

B1: Example 360: (4-(3,5-Dimethyl-1,2-oxazol-4-yl)-L-phenylalanine)-IC+SRSLP-(Oic)-I-(Pen)+IP-NH2 (peptide)
peptide: [X7]ICSRSLP[Oic]I[Pen]IP-NH2
modifications: disulfide 3-11; N-terminus assumed
SMILES: CC[C@H](C)[C@H](NC(=O)[C@@H](N)Cc1ccc(-c2c(C)noc2C)cc1)C(=O)N[C@H]1CSSC(C)(C)[C@@H](C(=O)N[C@H](C(=O)N2CCC[C@H]2C(N)=O)[C@@H](C)CC)NC(=O)[C@H]([C@@H](C)CC)NC(=O)[C@@H]2C[C@@H]3CCCC[C@@H]3N2C(=O)[C@@H]2CCCN2C(=O)[C@H](CC(C)C)NC(=O)[C@H](CO)NC(=O)[C@H](CCCNC(=N)N)NC(=O)[C@H](CO)NC1=O
human MASP1 IC50 [1]: 31 nM | human MASP2 IC50 [2]: 55 nM

B2: Example 362: (4-(Aminomethyl)benzoic acid)-IC+SRSLPPI-((N-Me)C)+IPD-NH2 (peptide)
peptide: [4Amb]ICSRSLPPI[NMeC]IPD-NH2
modifications: disulfide 3-11; N-terminus assumed
SMILES: CC[C@H](C)[C@H](NC(=O)c1ccc(CN)cc1)C(=O)N[C@H]1CSSC[C@@H](C(=O)N[C@H](C(=O)N2CCC[C@H]2C(=O)N[C@@H](CC(=O)O)C(N)=O)[C@@H](C)CC)N(C)C(=O)[C@H]([C@@H](C)CC)NC(=O)[C@@H]2CCCN2C(=O)[C@@H]2CCCN2C(=O)[C@H](CC(C)C)NC(=O)[C@H](CO)NC(=O)[C@H](CCCNC(=N)N)NC(=O)[C@H](CO)NC1=O
human MASP1 IC50 [1]: 33 nM | human MASP2 IC50 [2]: 65 nM

B3: Example 358: (Isovaleric)-IC+SRS-((tBu)A)-PPI-((N-Me)C)+I-NH2 (peptide)
peptide: Isovaleryl-ICSRS[tBuAla]PPI[NMeC]I-NH2
modifications: disulfide 2-10
SMILES: CC[C@H](C)[C@H](NC(=O)[C@@H]1CSSC[C@H](NC(=O)[C@@H](NC(=O)CC(C)C)[C@@H](C)CC)C(=O)N[C@@H](CO)C(=O)N[C@@H](CCCNC(=N)N)C(=O)N[C@@H](CO)C(=O)N[C@@H](CC(C)(C)C)C(=O)N2CCC[C@H]2C(=O)N2CCC[C@H]2C(=O)N[C@@H]([C@@H](C)CC)C(=O)N1C)C(N)=O
human MASP1 IC50 [1]: 31 nM | human MASP2 IC50 [2]: 19 nM

B6: Example 359: (tert-Butylacetic acid)-IC+SRS-((tBu)A)-PPI-(Pen)+IP-NH2 (peptide)
peptide: {Butanoyl(3,3-Me2)}-ICSRS[tBuAla]PPI[Pen]IP-NH2
modifications: disulfide 2-10
SMILES: CC[C@H](C)[C@H](NC(=O)CC(C)(C)C)C(=O)N[C@H]1CSSC(C)(C)[C@@H](C(=O)N[C@H](C(=O)N2CCC[C@H]2C(N)=O)[C@@H](C)CC)NC(=O)[C@H]([C@@H](C)CC)NC(=O)[C@@H]2CCCN2C(=O)[C@@H]2CCCN2C(=O)[C@H](CC(C)(C)C)NC(=O)[C@H](CO)NC(=O)[C@H](CCCNC(=N)N)NC(=O)[C@H](CO)NC1=O
human MASP1 IC50 [1]: 31 nM | human MASP2 IC50 [2]: 34 nM

B8: Example 361: ((N-Me)G)-PIC+SRS-((tBu)A)-PPI-(Pen)+IP-NH2 (peptide)
peptide: [Sar]PICSRS[tBuAla]PPI[Pen]IP-NH2
modifications: disulfide 4-12; N-terminus assumed
SMILES: CC[C@H](C)[C@H](NC(=O)[C@@H]1CCCN1C(=O)CNC)C(=O)N[C@H]1CSSC(C)(C)[C@@H](C(=O)N[C@H](C(=O)N2CCC[C@H]2C(N)=O)[C@@H](C)CC)NC(=O)[C@H]([C@@H](C)CC)NC(=O)[C@@H]2CCCN2C(=O)[C@@H]2CCCN2C(=O)[C@H](CC(C)(C)C)NC(=O)[C@H](CO)NC(=O)[C@H](CCCNC(=N)N)NC(=O)[C@H](CO)NC1=O
human MASP1 IC50 [1]: 32 nM | human MASP2 IC50 [2]: 1000 nM

B9: Example 354: ((N-Me)G)-IC+SRSL-((trans-4-Fluoro)P)-PIC+IPD-OH (peptide)
peptide: [Sar]ICSRSL[Pro(trans-4-F)]PICIPD-OH
modifications: disulfide 3-11; N-terminus assumed
SMILES: CC[C@H](C)[C@H](NC(=O)CNC)C(=O)N[C@H]1CSSC[C@@H](C(=O)N[C@H](C(=O)N2CCC[C@H]2C(=O)N[C@@H](CC(=O)O)C(=O)O)[C@@H](C)CC)NC(=O)[C@H]([C@@H](C)CC)NC(=O)[C@@H]2CCCN2C(=O)[C@@H]2C[C@@H](F)CN2C(=O)[C@H](CC(C)C)NC(=O)[C@H](CO)NC(=O)[C@H](CCCNC(=N)N)NC(=O)[C@H](CO)NC1=O
human MASP1 IC50 [1]: 29 nM | human MASP2 IC50 [2]: 510 nM

Binder: AICSRSLP[(3S-OH)P]ICIPD-NH2 (disulfide 3-11) [Example 355: AIC+SRSLP-((3S-OH)P)-IC+IPD-NH2]
human MASP1 IC50 [1]: 29 nM | human MASP2 IC50 [2]: 930 nM

Results, then the binder that gave them:

human MASP1 IC50 [1]: 1.1 nM | human MASP2 IC50 [2]: 35 nM
Binder: [Sar]ICSRSLP[Oic]I[Pen]IP-NH2 (disulfide 3-11; also: citrate salt) [Example 376: ((N-Me)G)-IC+SRSLP-(Oic)-I-(Pen)+IP-NH2 (Citrate)]

human MASP1 IC50 [1]: 36 nM | human MASP2 IC50 [2]: 660 nM
B4: Example 372: IC+SRSLP-(Oic)-I-(Pen)+IPE-NH2 (peptide)
peptide: ICSRSLP[Oic]I[Pen]IPE-NH2
modifications: disulfide 2-10; N-terminus assumed
SMILES: CC[C@H](C)[C@H](N)C(=O)N[C@H]1CSSC(C)(C)[C@@H](C(=O)N[C@H](C(=O)N2CCC[C@H]2C(=O)N[C@@H](CCC(=O)O)C(N)=O)[C@@H](C)CC)NC(=O)[C@H]([C@@H](C)CC)NC(=O)[C@@H]2C[C@@H]3CCCC[C@@H]3N2C(=O)[C@@H]2CCCN2C(=O)[C@H](CC(C)C)NC(=O)[C@H](CO)NC(=O)[C@H](CCCNC(=N)N)NC(=O)[C@H](CO)NC1=O

human MASP1 IC50 [1]: 35 nM | human MASP2 IC50 [2]: 1200 nM
B5: Example 368: IC+SRSLP-(Oic)-I-(Pen)+I-OH (peptide)
peptide: ICSRSLP[Oic]I[Pen]I-OH
modifications: disulfide 2-10; N-terminus assumed
SMILES: CC[C@H](C)[C@H](N)C(=O)N[C@H]1CSSC(C)(C)[C@@H](C(=O)N[C@H](C(=O)O)[C@@H](C)CC)NC(=O)[C@H]([C@@H](C)CC)NC(=O)[C@@H]2C[C@@H]3CCCC[C@@H]3N2C(=O)[C@@H]2CCCN2C(=O)[C@H](CC(C)C)NC(=O)[C@H](CO)NC(=O)[C@H](CCCNC(=N)N)NC(=O)[C@H](CO)NC1=O

human MASP1 IC50 [1]: 35 nM | human MASP2 IC50 [2]: 420 nM
B7: Example 369: IC+SRSLP-(Oic)-I-(Pen)+IPE-OH (peptide)
peptide: ICSRSLP[Oic]I[Pen]IPE-OH
modifications: disulfide 2-10; N-terminus assumed
SMILES: CC[C@H](C)[C@H](N)C(=O)N[C@H]1CSSC(C)(C)[C@@H](C(=O)N[C@H](C(=O)N2CCC[C@H]2C(=O)N[C@@H](CCC(=O)O)C(=O)O)[C@@H](C)CC)NC(=O)[C@H]([C@@H](C)CC)NC(=O)[C@@H]2C[C@@H]3CCCC[C@@H]3N2C(=O)[C@@H]2CCCN2C(=O)[C@H](CC(C)C)NC(=O)[C@H](CO)NC(=O)[C@H](CCCNC(=N)N)NC(=O)[C@H](CO)NC1=O

human MASP1 IC50 [1]: 37 nM | human MASP2 IC50 [2]: 14000 nM
Binder: AICSRSLPPIC[2‑Methyl‑D‑alloisoleucine]PD-NH2 (disulfide 3-11) [Example 374: AIC+SRSLPPIC+(2-Methyl-D-alloisoleucine)-PD-NH2]

human MASP1 IC50 [1]: 35 nM | human MASP2 IC50 [2]: 93.5 nM
B10: Example 370: fIC+SRSLP-(Oic)-I-(Pen)+IP-NH2 (peptide)
peptide: [dF]ICSRSLP[Oic]I[Pen]IP-NH2
modifications: disulfide 3-11; N-terminus assumed
SMILES: CC[C@H](C)[C@H](NC(=O)[C@H](N)Cc1ccccc1)C(=O)N[C@H]1CSSC(C)(C)[C@@H](C(=O)N[C@H](C(=O)N2CCC[C@H]2C(N)=O)[C@@H](C)CC)NC(=O)[C@H]([C@@H](C)CC)NC(=O)[C@@H]2C[C@@H]3CCCC[C@@H]3N2C(=O)[C@@H]2CCCN2C(=O)[C@H](CC(C)C)NC(=O)[C@H](CO)NC(=O)[C@H](CCCNC(=N)N)NC(=O)[C@H](CO)NC1=O

human MASP1 IC50 [1]: 33 nM | human MASP2 IC50 [2]: 98 nM
Binder: Tranexamic-ICSRSLPPI[NMeC]IPD-NH2 (disulfide 2-10) [Example 364: (Tranexamic)-IC+SRSLPPI-((N-Me)C)+IPD-NH2]

human MASP1 IC50 [1]: 36 nM | human MASP2 IC50 [2]: 810 nM
B11: Example 371: PPIC+SRS-((tBu)A)-PPI-(Pen)+I-NH2 (peptide)
peptide: PPICSRS[tBuAla]PPI[Pen]I-NH2
modifications: disulfide 4-12; N-terminus assumed
SMILES: CC[C@H](C)[C@H](NC(=O)[C@H]1NC(=O)[C@H]([C@@H](C)CC)NC(=O)[C@@H]2CCCN2C(=O)[C@@H]2CCCN2C(=O)[C@H](CC(C)(C)C)NC(=O)[C@H](CO)NC(=O)[C@H](CCCNC(=N)N)NC(=O)[C@H](CO)NC(=O)[C@@H](NC(=O)[C@@H](NC(=O)[C@@H]2CCCN2C(=O)[C@@H]2CCCN2)[C@@H](C)CC)CSSC1(C)C)C(N)=O

human MASP1 IC50 [1]: 35 nM | human MASP2 IC50 [2]: 600 nM
B12: Example 367: ((N-Me)G)-IC+SRSLPPIC+I-(Oic)-D-OH (peptide)
peptide: [Sar]ICSRSLPPICI[Oic]D-OH
modifications: disulfide 3-11; N-terminus assumed
SMILES: CC[C@H](C)[C@H](NC(=O)CNC)C(=O)N[C@H]1CSSC[C@@H](C(=O)N[C@H](C(=O)N2[C@H](C(=O)N[C@@H](CC(=O)O)C(=O)O)C[C@@H]3CCCC[C@@H]32)[C@@H](C)CC)NC(=O)[C@H]([C@@H](C)CC)NC(=O)[C@@H]2CCCN2C(=O)[C@@H]2CCCN2C(=O)[C@H](CC(C)C)NC(=O)[C@H](CO)NC(=O)[C@H](CCCNC(=N)N)NC(=O)[C@H](CO)NC1=O

human MASP1 IC50 [1]: 37 nM | human MASP2 IC50 [2]: 450 nM
B13: Example 373: (Aib)-IC+SRSLPPIC+IPD-NH2 (peptide)
peptide: [Aib]ICSRSLPPICIPD-NH2
modifications: disulfide 3-11; N-terminus assumed
SMILES: CC[C@H](C)[C@@H]1NC(=O)[C@@H]2CCCN2C(=O)[C@@H]2CCCN2C(=O)[C@H](CC(C)C)NC(=O)[C@H](CO)NC(=O)[C@H](CCCNC(=N)N)NC(=O)[C@H](CO)NC(=O)[C@@H](NC(=O)[C@@H](NC(=O)C(C)(C)N)[C@@H](C)CC)CSSC[C@@H](C(=O)N[C@H](C(=O)N2CCC[C@H]2C(=O)N[C@@H](CC(=O)O)C(N)=O)[C@@H](C)CC)NC1=O
